# Results: publication PMC9850920
# T1: METTL16-His6 (full length) (Homo sapiens, UniProt Q86W50)
# T1 sequence: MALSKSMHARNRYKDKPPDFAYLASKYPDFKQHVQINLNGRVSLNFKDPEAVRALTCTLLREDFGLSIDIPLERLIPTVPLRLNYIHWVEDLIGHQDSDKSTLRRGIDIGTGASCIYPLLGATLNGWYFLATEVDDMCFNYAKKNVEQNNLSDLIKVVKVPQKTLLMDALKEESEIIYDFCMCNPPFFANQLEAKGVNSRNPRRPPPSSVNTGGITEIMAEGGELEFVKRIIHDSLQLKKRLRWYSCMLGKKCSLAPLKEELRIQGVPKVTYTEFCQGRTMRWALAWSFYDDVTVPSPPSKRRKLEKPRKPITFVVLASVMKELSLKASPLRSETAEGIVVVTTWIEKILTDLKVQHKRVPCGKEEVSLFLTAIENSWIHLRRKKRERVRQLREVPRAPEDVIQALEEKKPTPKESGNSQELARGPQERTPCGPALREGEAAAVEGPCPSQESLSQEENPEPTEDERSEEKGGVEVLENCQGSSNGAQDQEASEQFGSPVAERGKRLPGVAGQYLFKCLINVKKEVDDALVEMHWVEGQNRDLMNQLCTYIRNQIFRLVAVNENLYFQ
# Target: T1, METTL16-His6 (full length)
# Assay: MST
binder,measurement,value
MALAT1 triple helix (structured_RNA) RNA: GGAAGGUUUUUCUUUUCCUGAGAAAACAACACGUAUUGUUUUCUCAGGUUUUGCUUUUUGGCCUUUUUCUAGCUUAAAAAAAAAAAAAGCAAAA,Kd,31 ± 3 nM
